These are literature values, as cited in publication PMC1854907.

The target in the series is SCP2 PTS1 peptide (Homo sapiens). Briefly: ITC. A general note: In ITC the heat of successive injections is recorded.

One may read the Kd as the concentration at which binding is half-saturated. For the substance “Pex5p(C) C-terminal domain (from UniProt P50542)”, the Kd is 664 nM.
